How the values were obtained:
[1] = target: ATG101 co-expressed with ULK1 (human) (UniProt Q9BSB4); experiment: mass photometry
His-ATG101 (human) = His-ATG101 (human) (UniProt Q9BSB4); experiment: mass photometry
[2] = target: phospho-mimetic ATG101 mutants S11D and S203D (human) (UniProt Q9BSB4); experiment: mass photometry
[3] = target: phosphorylated ATG101 purified from insect cells treated with Okadaic Acid (human) (UniProt Q9BSB4); experiment: mass photometry
[4] = target: phosphorylated ATG101 (His-ATG101 phosphorylated in vitro by ULK1) (human) (UniProt Q9BSB4); experiment: mass photometry
ATG101 (human) [5] = target: ATG101 (human) (UniProt Q9BSB4); experiment: mass photometry
ATG101 (human) [6] = target: ATG101 (human) (UniProt Q9BSB4); experiment: cross-linking
[7] = target: ATG13-ATG101^Alexa488 (pre-formed complex) (UniProt Q9BSB4); experiment: fluorescence polarisation
^MBPATG13 full-length = target: T1, ^MBPATG13 full-length (UniProt O75143 1-517); experiment: fluorescence polarisation
T1 sequence: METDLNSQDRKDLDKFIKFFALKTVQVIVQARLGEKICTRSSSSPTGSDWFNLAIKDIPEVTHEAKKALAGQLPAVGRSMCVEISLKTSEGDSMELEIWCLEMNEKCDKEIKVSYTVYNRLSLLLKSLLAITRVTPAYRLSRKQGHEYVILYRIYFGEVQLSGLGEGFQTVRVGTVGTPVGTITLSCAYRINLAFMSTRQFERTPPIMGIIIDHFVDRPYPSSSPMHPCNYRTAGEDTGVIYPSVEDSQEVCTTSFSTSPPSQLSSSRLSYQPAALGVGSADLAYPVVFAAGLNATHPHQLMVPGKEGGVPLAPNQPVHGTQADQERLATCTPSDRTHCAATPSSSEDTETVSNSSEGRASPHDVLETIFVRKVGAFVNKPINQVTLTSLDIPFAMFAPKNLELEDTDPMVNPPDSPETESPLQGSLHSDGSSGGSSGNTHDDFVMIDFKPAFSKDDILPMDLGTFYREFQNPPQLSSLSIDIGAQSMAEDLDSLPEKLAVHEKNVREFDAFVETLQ

ATG101 co-expressed with ULK1 (from UniProt Q9BSB4 1-218) (natural protein)
stoichiometry N [1]: 2

His-ATG101 (from UniProt Q9BSB4 1-218) (natural protein)
stoichiometry N (His-ATG101 (human)): 2

phospho-mimetic ATG101 mutants S11D and S203D (from UniProt Q9BSB4 1-218) (natural protein)
stoichiometry N [2]: 2

phosphorylated ATG101 purified from insect cells treated with Okadaic Acid (from UniProt Q9BSB4 1-218) (natural protein)
stoichiometry N [3]: 2

phosphorylated ATG101 (His-ATG101 phosphorylated in vitro by ULK1) (from UniProt Q9BSB4 1-218) (natural protein)
Kd [4]: 100 to 250 nM
stoichiometry N [4]: 2

ATG101 (from UniProt Q9BSB4 1-218) (natural protein)
stoichiometry N (ATG101 (human) [5]): 2
stoichiometry N (ATG101 (human) [6]): 2

B1: ^MBPATG9A (natural protein)
chain: MAQFDTEYQRLEASYSDSPPGEEDLLVHVAEGSKSPWHHIENLDLFFSRVYNLHQKNGFTCMLIGEIFELMQFLFVVAFTTFLVSCVDYDILFANKMVNHSLHPTEPVKVTLPDAFLPAQVCSARIQENGSLITILVIAGVFWIHRLIKFIYNICCYWEIHSFYLHALRIPMSALPYCTWQEVQARIVQTQKEHQICIHKRELTELDIYHRILRFQNYMVALVNKSLLPLRFRLPGLGEAVFFTRGLKYNFELILFWGPGSLFLNEWSLKAEYKRGGQRLELAQRLSNRILWIGIANFLLCPLILIWQILYAFFSYAEVLKREPGALGARCWSLYGRCYLRHFNELEHELQSRLNRGYKPASKYMNCFLSPLLTLLAKNGAFFAGSILAVLIALTIYDEDVLAVEHVLTTVTLLGVTVTVCRSFIPDQHMVFCPEQLLRVILAHIHYMPDHWQGNAHRSQTRDEFAQLFQYKAVFILEELLSPIVTPLILIFCLRPRALEIIDFFRNFTVEVVGVGDTCSFAQMDVRQHGHPQWLSAGQTEASVYQQAEDGKTELSLMHFAITNPGWQPPRESTAFLGFLKEQVQRDGAAASLAQGGLLPENALFTSIQSLQSESEPLSLIANVVAGSSCRGPPLPRDLQGSRHRAEVASALRSFSPLQPGQAPTGRAHSTMTGSGVDARTASSGSSVWEGQLQSLVLSEYASTEMSLHALYMHQLHKQQAQAEPERHVWHRRESDESGESAPDEGGEGARAPQSIPRSASYPCAAPRPGAPETTALHGGFQRRYGGITDPGTVPRVPSHFSRLPLGGWAEDGQSASRHPEPVPEEGSEDELPPQVHKV
kon [7]: 15000 M⁻¹ s⁻¹

B2: phosphorylated ATG101^Alexa488 (natural protein)
chain: MNCRSEVLEVSVEGRQVEEAMLAVLHTVLLHRSTGKFHYKKEGTYSIGTVGTQDVDCDFIDFTYVRVSSEELDRALRKVVGEFKDALRNSGGDGLGQMSLEFYQKKKSRWPFSDECIPWEVWTVKVHVVALATEQERQICREKVGEKLCEKIINIVEVMNRHEYLPKMPTQSEVDNVFDTGLRDVQPYLYKISFQITDALGTSVTTTMRRLIKDTLAL
kon (^MBPATG13 full-length): 14.7 M⁻¹ s⁻¹

B3: ATG101^Alexa488 (natural protein)
chain: B2 chain
kon (^MBPATG13 full-length): 14.7 M⁻¹ s⁻¹

Reference: paper doi:10.1101/2025.06.27.661946 (bioRxiv, 2025)
